These results are taken from patent US20100068217A1.

The target of assay [1] is MPER WT peptide. The experiment in a line: ELISA, antigen on the plate, 2F5 IgG titrated 2.6e-7 to 1e-1 ug/ul. (ELISA stands for enzyme-linked immunosorbent assay.)
The target of assay [2] is gp41e-1KU2 (Thermus aquaticus (origin of the scaffold protein, Table 1)). Described as above.
In assay [3] the target is MPER Cyclized peptide (HIV-1 gp41 MPER-derived, synthetic). The experiment in a line: kinetics with 2F5 as analyte (Biacore per paragraph 255). For orientation: Surface plasmon resonance follows binding to a sensor surface in real time, without labels.
Assay [4] deals with MPER WT peptide. Described as above.
The target of assay [5] is gp41e-1KU2 (Thermus aquaticus (origin of the scaffold protein, Table 1)). Described as above.
In assay [6] the target is gp41e-1LGY (Rhizopus niveus (origin of the scaffold protein, Table 1)). Described as above.
Assay [7] concerns the target gp41e-2MAT (E. coli (origin of the scaffold protein, Table 1)). The assay is described as above.

On to 2F5 antibody, for which the EC50 (read off the curve) (with MPER WT peptide [1]; in assay [2]) was 0.2 µg/mL throughout. The Kd (commonly a measure of binding affinity in units of concentration) in assay [3] was 5.09 nM; with MPER WT peptide [4] it was 6.45 nM; in assay [5], 2.63 nM; in assay [6] it was 10.7 nM; in assay [7] it was 9.35 nM. For the same substance, the dissociation rate constant (koff) (usually the rate constant with which the complex falls apart) in assay [3] is 0.00269 s⁻¹; with MPER WT peptide [4] it was 0.00356 s⁻¹; in assay [5] it was 0.00287 s⁻¹; in assay [6] it was 0.00396 s⁻¹; in assay [7] it was 0.000679 s⁻¹. The association rate constant (kon) (usually the second-order rate constant of association) in assay [3] was determined as 528000 M⁻¹ s⁻¹; with MPER WT peptide [4] it was 552000 M⁻¹ s⁻¹; in assay [5] it was 1.09e+06 M⁻¹ s⁻¹; in assay [6], 369000 M⁻¹ s⁻¹; in assay [7], 72600 M⁻¹ s⁻¹.
